Measured values taken from patent US7211395.

Biological target: human serum albumin (HSA) (human), P02768
Assay: FP
Conditions: modification not given

Row | Binder | Kd [µM]
1 | AEGTGDFWFCDRIAWYAQHLCEFLDPEGGGK [DX-236 Ala mutant 120] | 1.3
2 | AEGTGDFWFCDRIAWYPQHACEFLDPEGGGK [DX-236 Ala mutant 117] | 2
3 | AEGTGDFAFCDRIAWYPQHLCEFLDPEGGGK [DX-236 Ala mutant 127] | 2.3
4 | AEGTGAFWFCDRIAWYPQHLCEFLDPEGGGK [DX-236 Ala mutant 129] | 5.1
5 | AEGTGDAWFCDRIAWYPQHLCEFLDPEGGGK [DX-236 Ala mutant 128] | 5.1
6 | AEGTGDFWFCDRIAWYPAHLCEFLDPEGGGK [DX-236 Ala mutant 119] | 2.2
7 | AEGTGDFWFCARIAWYPQHLCEFLDPEGGGK [DX-236 Ala mutant 125] | 5
8 | AEGTGDFWFCDRIAWAPQHLCEFLDPEGGGK [DX-236 Ala mutant 121] | 1.4
9 | AEGTGDFWFCDRIAAYPQHLCEFLDPEGGGK [DX-236 Ala mutant 122] | 1.4
10 | AEGTGDFWFCDAIAWYPQHLCEFLDPEGGGK [DX-236 Ala mutant 124] | 1.5
